According to PMC2883074 (Molecular Microbiology, 2010):
Read-outs that look alike come from different tables or passages of the source.

B1: full-length Helicobacter pylori MinE (natural protein, UniProt O25099 1-77, looked up)
chain: MSLFDFFKNKGSAATATDRLKLILAKERTLNLPYMEEMRKEIIAVIQKYTKSSDIHFKTLDSNQSVETIEVEIILPR
B2: Selenomethionine (Se-Met)-labelled HpMinE (natural protein, Helicobacter pylori, UniProt O25099 1-77, looked up)
chain: B1 chain
modifications: selenomethionine (Se-Met-labelled)
B3: EcMinEΔN (residues 32-88 of EcMinE) (domain or fragment, E. coli, UniProt P0A734 32-88, looked up)
chain: SDAEPHYLPQLRKDILEVICKYVQIDPEMVTVQLEQKDGDISILELNVTLPEAEELK

Assays:
SEC [1] = biological target: the molecule itself; experiment: SEC
crystal structure = biological target: the molecule itself; experiment: crystal structure
SEC [2] = biological target: the molecule itself; experiment: SEC; remark: listed apart in the source

Row | Protein | stoichiometry N (SEC [2]) | also measured
1 | B1 | – | stoichiometry N (SEC [1]): 2
2 | B2 | – | binding result (crystal structure): binds
3 | TLNLPYMEEMRKEIIAVIQKYTKSSDIHFKTLDSNQSVETIEVEIILPR (domain or fragment, Helicobacter pylori, UniProt O25099 29-77, looked up) [HpMinEΔN (residues 29-77 of HpMinE)] | 3 | –
4 | B3 | 4 | –
